Patent publication US12576025B2, “Pharmaceutical parenteral composition of dual GLP1/2 agonist” (Zealand Pharma A/S, priority 2019, dated 2026)
*1 amine or outer side, *2 acyl side, *3 side chain or, on linkers, in order; H or OH if unused. Where no end group is shown, it is not given here. Side-chain parts run from the residue outwards. [ ]: non-standard residue; d: D form. The star is where a group is joined. C18 diacid = O=C(O)CCCCCCCCCCCCCCCCC(=O)*; γGlu = O=C(O)[C@H](CCC(=O)[*:2])N[*:1]; Aib = CC(C)(N)C(=O)O

Experiment: Physical stability via ThT fibril formation (ASSAY IVc)
Type: physicochemical
Parameters: key to Aggregation (ThT), no added tonicity agent / Aggregation (ThT), 270 mM mannitol: FD = Fibrillation Detected; FND = Fibrillation Not Detected
Settings: for Aggregation (ThT), 270 mM mannitol / Aggregation (ThT), no added tonicity agent: 96 hours
Method: Samples were prepared in a total volume of 0.5 mL API (herein e.g. CPD1) stock solutions were prepared by dissolving API in demineralised water at ambient temperature (typically 25° C.) to achieve 5 and 25 mg/mL API, respectively. 8 working solutions were prepared: 1) 40 mM phosphate pH 6 and 80 μM ThT; 2) 40 mM phosphate pH 6.5 and 80 μM ThT; 3) 40 mM phosphate pH 7 and 80 μM ThT; 4) 40 mM phosphate pH 8 and 80 μM ThT; 5) 40 mM phosphate pH 6, 540 mM mannitol and 80 μM ThT; 6) 40 mM phosphate pH 6.5, 540 mM mannitol and 80 μM ThT; 7) 40 mM phosphate pH 7, 540 mM mannitol and 80 μM ThT; and 8) 40 mM phosphate pH 8, 540 mM mannitol and 80 μM ThT.
200 μL of API stock was mixed with 250 μL working solution, pH was measured and adjusted to target, followed by adding demineralised water to a final volume of 500 μL. Samples were loaded in a 96-well black fluorescence plate (clear bottom) in triplicate 3×150 μL. Data were collected at fixed intervals of 10 min, each preceded by 300 s of automixing (agitation), over a period of 96 hours at 40° C. Physical stability, expressed as lag-time of fibril formation (in hours), was defined as the intersection between two linear regressions representing the initial stable phase and the growth phase.

[1] = 2 mg/mL CPD1, 20 mM phosphate pH 6, 40° C.
[2] = 2 mg/mL CPD1, 20 mM phosphate pH 6.5, 40° C.
[3] = 2 mg/mL CPD1, 20 mM phosphate pH 7, 40° C.
[4] = 2 mg/mL CPD1, 20 mM phosphate pH 8, 40° C.
[5] = 10 mg/mL CPD1, 20 mM phosphate pH 6, 40° C.
[6] = 10 mg/mL CPD1, 20 mM phosphate pH 6.5, 40° C.
[7] = 10 mg/mL CPD1, 20 mM phosphate pH 7, 40° C.
[8] = 10 mg/mL CPD1, 20 mM phosphate pH 8, 40° C.

Substance: H[Aib]EGSFTSELATILD[ψ]QAARDFIAWLIQHKITD (H[Aib]EGSFTSELATILDK([γGlu-C18 diacid])QAARDFIAWLIQHKITD; not fully specified; printed as H[Aib]EGSFTSELATILD[ψ]QAARDFIAWLIQHKITD; also: X16: L or D lysine) [CPD1, GLP-1/GLP-2 dual agonist]
- Aggregation (ThT), 270 mM mannitol [1]: FD
- Aggregation (ThT), no added tonicity agent [1]: FD
- Aggregation (ThT), 270 mM mannitol [2]: FND
- Aggregation (ThT), no added tonicity agent [2]: FND
- Aggregation (ThT), 270 mM mannitol [3]: FND
- Aggregation (ThT), no added tonicity agent [3]: FND
- Aggregation (ThT), 270 mM mannitol [4]: FND
- Aggregation (ThT), no added tonicity agent [4]: FND
- Aggregation (ThT), 270 mM mannitol [5]: FD
- Aggregation (ThT), no added tonicity agent [5]: FD
- Aggregation (ThT), 270 mM mannitol [6]: FND
- Aggregation (ThT), no added tonicity agent [6]: FND
- Aggregation (ThT), 270 mM mannitol [7]: FND
- Aggregation (ThT), no added tonicity agent [7]: FND
- Aggregation (ThT), 270 mM mannitol [8]: FND
- Aggregation (ThT), no added tonicity agent [8]: FND
- Amyloid formation / fibrillation (2 and 10 mg/mL CPD1, pH 6): amyloid formation was observed
- Amyloid formation / fibrillation (2 and 10 mg/mL CPD1, pH 7 or 8): no fibrillation was observed
